Legend:
[1] = target: the molecule itself; experiment: native MS; incubated at 55 °C with 2 mM ATP or ATPγS for 1 min, exchanged into 150 mM ammonium acetate pH 7.5 with 100 µM ATP or ATPγS at 4 °C; nanoflow electrospray
[2] = target: the molecule itself; experiment: AUC; sedimentation velocity, 20 °C, 42,000 rpm, 50 mM MOPS pH 7.5, 50 mM KCl, 5 mM MgCl2, 0.5 and 2.0 mg/mL protein, with 20 mM ATP (preincubated 55 °C 1 min)
[3] = target: the molecule itself; experiment: AUC; sedimentation velocity, 20 °C, 42,000 rpm, 50 mM MOPS pH 7.5, 50 mM KCl, 5 mM MgCl2, 0.5 and 2.0 mg/mL protein, with 2 mM ATPγS (preincubated 55 °C 1 min)
[4] = target: the molecule itself; experiment: AUC; sedimentation velocity, 20 °C, 42,000 rpm, 50 mM MOPS pH 7.5, 50 mM KCl, 5 mM MgCl2, 0.5 and 2.0 mg/mL protein, with 20 mM ADP (preincubated 55 °C 1 min)

B1: Full-length T. thermophilus ClpB (TClpB) (natural protein)
chain: not shown
notes: ClpB of Thermus thermophilus, full length, expressed from plasmid pMCB1; The protomer; it assembles into oligomers of varying size depending on the nucleotide; also called full-length TClpB; source: E. coli BL21(DE3) or KRX carrying pMCB1, purified
- stoichiometry N [1]: 2
- stoichiometry N [2]: 3
- stoichiometry N [3]: 6
- stoichiometry N [4]: < 6

— paper PMC5984625, “Dynamic structural states of ClpB involved in its disaggregation function” (Nature Communications, 2018)
